# Measured values as given in patent publication US20110093983A1, “ALGAL GLYCEROL-3 PHOSPHATE ACYLTRANSFERASE” (National Research Council of Canada, priority 2008, published 2011).
# “Also recorded” adds a separate entry of the source.
# What was measured:
# yeast gat1 mutant = assay: Fatty acid composition of TAG and phospholipids from yeast gat1 mutant expressing TpGPAT1; type: cell-based, Saccharomyces cerevisiae; conditions: for Proportion of Fatty Acid 16:0 / Proportion of Fatty Acid 16:1 / Proportion of Fatty Acid 18:0 / Proportion of Fatty Acid 18:1 / Proportion of Fatty Acid Sats / Proportion of Fatty Acid Unsats: 3-day induction with 2% galactose, average ± SD, three replicates
# Experimental: Yeast cultures were grown at 28° C. in the presence of 2% (w/v) glucose and 1% (w/v) Tergitol NP-40 (Sigma, St. Louis, Mo., US). Expression of the transgene was induced at OD600 nm 0.2 to 0.3 by supplementing galactose to 2% (w/v). At that time, the appropriate FAs were added to a final concentration of 50 or 100 μM in the presence of 1% (w/v) Tergitol NP-40 (Sigma, St. Louis, Mo., US). Yeast cells (20 ml) were harvested after a 3-day incubation, total lipids from yeast homogenates were extracted using the procedure of Schneiter (2005). Separation of neutral lipids and polar lipids was performed by running the thin layer chromatography plates (Si 250-PA, Baker, Phillipsburg, N.J.) in a developing solvent of hexane: ether: acetic acid (70:30:1, v/v) and identified by co-migration with known standards. Spots corresponding to TAG and phospholipid were scraped off the TLC plates and were transmethylated with methanolic HCl and quantified by gas chromatography as described previously. (Zheng and Zou, 2001).
# To investigate if the over-expression of TpGPAT has any effect on the fatty acids composition of yeast lipids in vivo, the gall cells harboring TpGPAT or an empty vector as control were induced for 3 days by galactose at 28° C. The total lipids was extracted and then separated into triacylglycerols (TAGS) and phospholipids by TLC for the analysis of fatty acid composition. […] Approximately 12% and 18% increase of 16:0 in phospholipids and triacylglycerols, respectively, turned 16:0 into the most dominant fatty acid in the TpGPAT expressing yeast cells, instead of 16:1 fatty acid in the mutant cells harboring the empty vector. Conversely, the unsaturated fatty acids, 16:1 and 18:1, were reduced to 15% and 21% in these two lipid species. […] Collectively, the results strongly support the finding in the in vitro substrate specificity assay that 16:0 is the most preferred substrate for TpGPAT.
# [1] = GPAT activity assay of microsomal membrane fractions from yeast gat1 mutant expressing TpGPAT; type: biochemical, Saccharomyces cerevisiae
# Experimental: FIG. 2 depicts GPAT activity of TpGPAT1 expressed in yeast gat1 mutant. The microsomal membrane fractions prepared from lysates of the induced yeast cells harboring TpGPAT1 or empty vector pYES2.1 were assayed for GPAT activity with 400 μM [^14C]glycerol 3-phosphate (2.5 nCi/nmol), 45 μM palmitoyl-CoA, 75 mM Tris-HCl, pH 7.5, 1 mM DTT, and 2 mM MgCl2 for 10 min at room temperature. After extraction of the phospholipid products, the radioactivity was measured by scintillation count.
# FIG. 3 depicts substrate specificity of TpGPAT1. The microsomal membrane fractions prepared from lysates of the induced yeast cells harboring TpGPAT1 or empty vector pYES2.1 were assayed for GPAT activity with 400 μM [^14C]glycerol 3-phosphate (2.5 nCi/nmol) and different acyl-CoAs as acyl donor. After extraction of the phospholipid products, the radioactivity was measured by scintillation count. […]
# Enzyme Assays: GPAT assays were conducted at 30° C. for 10 min. in a 200-pL reaction mixture containing 40 mM Hepes, pH 7.0, 400 pM ^14C-glycerol-3-phosphate (2.5 nCi/nmol), 67.5 pM palmitoyl-CoA and/or stearoyl-CoA or other fatty acyl donors, 1 mM DTT, 2 mM MgCl2, and 2.5 mg/mL BSA unless stated otherwise. […] The formed products were subjected to scintillation counting for radioactivity and thin layer chromatography analysis as described. […]
molecule,measurement,setting,value
"TpGPAT1: membrane-bound glycerol-3-phosphate acyltransferase from T. pseudonana, 674 amino acids, SEQ ID NO:2 (nucleotide SEQ ID NO:1) (protein, listed as Thalassiosira pseudonana) MGVEKKGTMMSELDYTKAQLAFFYIVVLLSLDMLNPVKIFLHVFPAIKSWHIATFAIACMSYIFIVNLRELLYFATKVFFHSILSIFFNDVTVVGRENIPSHGPVIFTSNHANQFMDGLMIMCTCQRTISYLVADKSWNRPIIGHLAWMMGGVPVKRAQDSACKGTGKISIDLNALAGSDAVINVVGKGTSFTSQIKAGDKIRLPNNAIGIKVESIESDESMSLKVEDGVAEVLSSHPFPEYVTYDILPRIDQKDVYQNVLEKLASGGTIGIFPEGGSHDRTDLLPLKVGVALIAYSELEKDGINVPIVPVGLNYFRAHRFRGKATVEFGSPTYIEPSTLADYKKGGADKRRVCNDLLARIENSMRSVIVSVPDFETLQTIHAARRLYRQDGRNETAEQRQDMGRRFAEGYKRVLLQLGGEPPEEWLSLQSRILAYQKELNELGIRDYQVVGLDHEEVELGSESQGHSKADTVLHRMNVFGHIVHLFVIAVLAALPAMLLNLPVGLASRIYSNRRRKVALAASKVKVKGYDVMLSERVLACIVLVPSLWVVYGLLLSLFTSLDGPSLAVCFTCFPLFSYWSIMATESGMVDIKDLRPYVMRMIPSARRRLAALPATRKALRSDLRAMIKKIGPSLGDIYYEKDLNWQKIQMETKRMSMEELDPAQKDEAAKKEE",Proportion of Fatty Acid 16:0,yeast gat1 mutant; Phospholipids,31.10 ± 3.78 mol %
same,Proportion of Fatty Acid 16:1,yeast gat1 mutant; Phospholipids,34.15 ± 2.74 mol %
same,Proportion of Fatty Acid 18:0,yeast gat1 mutant; Phospholipids,8.92 ± 1.49 mol %
same,Proportion of Fatty Acid 18:1,yeast gat1 mutant; Phospholipids,25.45 ± 2.25 mol %
same,Proportion of Fatty Acid Sats,yeast gat1 mutant; Phospholipids,40.02 ± 4.57 mol %
same,Proportion of Fatty Acid Unsats,yeast gat1 mutant; Phospholipids,59.83 ± 4.61 mol %
same,Proportion of Fatty Acid 16:0,yeast gat1 mutant; TAG,41.80 ± 2.17 mol %
same,Proportion of Fatty Acid 16:1,yeast gat1 mutant; TAG,29.15 ± 1.61 mol %
same,Proportion of Fatty Acid 18:0,yeast gat1 mutant; TAG,9.17 ± 1.22 mol %
same,Proportion of Fatty Acid 18:1,yeast gat1 mutant; TAG,18.94 ± 0.99 mol %
same,Proportion of Fatty Acid Sats,yeast gat1 mutant; TAG,50.97 ± 2.85 mol %
same,Proportion of Fatty Acid Unsats,yeast gat1 mutant; TAG,48.49 ± 2.44 mol %
same,Increase of 18:0 versus empty vector,"yeast gat1 mutant; yeast gat1, both TAG and phospholipids",3-4%
same,Reduction of unsaturated fatty acids 16:1 and 18:1 in phospholipids versus empty vector,"yeast gat1 mutant; yeast gat1, phospholipids",15%
same,Increase of 16:0 in triacylglycerols versus empty vector,"yeast gat1 mutant; yeast gat1, triacylglycerols",~18%
same,Reduction of unsaturated fatty acids 16:1 and 18:1 in triacylglycerols versus empty vector,"yeast gat1 mutant; yeast gat1, triacylglycerols",21%
same,Substrate specificity for fatty acyl donors,"[1]; different acyl-CoAs as acyl donors (14:0, 16:0, 16:1, 18:0, 18:1, 22:6)",highly specific for 16:0; also recorded: highest activity toward 16:0; also recorded: highly specific for saturated C16 fatty acids
same,GPAT activity versus control cells transformed with empty pYES2.1 vector,"[1]; microsomal membrane fractions, yeast gat1, palmitoyl (16:0)-CoA as acyl donor",about seven
